In patent US20020045591A1, “Methods and therapeutic compositions for treating cancer” (priority 1998, published 2002):

How the values were obtained:
[1] = biological target: T1, β-catenin (Cricetulus griseus, UniProt G3H996); assay: Co-immunoprecipitation of cadherin derivatives with β-catenin in CHO cells; type: binding; conditions: stably transfected CHO cells, FIG. 2B
T1 construct: resulting from the stabilization of the endogenous β-catenin by the transfected cadherin derivatives; endogenous in cells; host or cells: CHO cells, stably or transiently transfected with cadherin derivatives only
T1 sequence (G3H996 1-781): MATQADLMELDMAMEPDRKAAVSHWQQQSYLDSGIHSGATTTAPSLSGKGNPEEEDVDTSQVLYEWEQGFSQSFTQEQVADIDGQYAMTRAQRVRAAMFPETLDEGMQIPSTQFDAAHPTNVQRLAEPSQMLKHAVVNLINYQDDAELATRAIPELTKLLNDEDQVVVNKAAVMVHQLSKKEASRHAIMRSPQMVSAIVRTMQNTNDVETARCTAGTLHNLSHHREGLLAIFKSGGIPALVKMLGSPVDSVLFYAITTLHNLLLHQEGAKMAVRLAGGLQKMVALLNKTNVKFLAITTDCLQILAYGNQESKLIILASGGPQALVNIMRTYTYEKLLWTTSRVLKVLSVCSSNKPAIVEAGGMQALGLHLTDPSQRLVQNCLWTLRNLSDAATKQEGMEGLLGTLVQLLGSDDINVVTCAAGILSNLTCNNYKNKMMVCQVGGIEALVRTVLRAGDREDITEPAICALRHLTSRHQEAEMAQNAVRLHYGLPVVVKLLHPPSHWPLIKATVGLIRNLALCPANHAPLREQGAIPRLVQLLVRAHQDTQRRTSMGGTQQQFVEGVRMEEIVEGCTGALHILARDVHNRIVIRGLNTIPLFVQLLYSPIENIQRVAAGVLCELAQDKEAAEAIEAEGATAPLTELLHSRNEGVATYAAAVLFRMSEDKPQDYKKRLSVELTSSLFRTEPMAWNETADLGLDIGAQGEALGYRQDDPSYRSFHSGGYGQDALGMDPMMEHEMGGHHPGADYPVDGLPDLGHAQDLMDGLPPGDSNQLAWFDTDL
From the text: Immunoblotting and immunoprecipitation: The following antibodies were used: polyclonal pan-cadherin or monoclonal anti cadherin (CH-19) and polyclonal anti β-catenin antibodies were from Sigma (Holon, Israel). Monoclonal anti β-catenin, 5H10 (from M. Wheelock), anti IL2Rα (from UBI), anti flag (M2, from IBI), anti HA (clone 12CA5, from Boehringer Mannheim, Germany), anti GFP (polyclonal, from Clontech, Palo Alto, Calif.), anti LEF-1 (polyclonal, kindly provided by Dr. R. Grosschedl). Secondary antibodies for Western blotting were goat anti rabbit or anti mouse conjugated to HRP (Amersham, Buckinghampshire, UK), and for immunofluorescence analysis the secondary antibodies were FITC-goat anti mouse (Cappel, USA) or rhodamine-anti rabbit antibodies (from Jackson Immuno-Research, West Grove, Pa.). Cells were harvested in Laemmli's sample buffer and equal amounts of total cell protein from the different clones, or from transient transfections, were separated by SDS-PAGE, electrotransferred to nitrocellulose and incubated with the different antibodies. For immunoprecipitation, cells were harvested in IP buffer (20 mM Tris pH 8.0, 1% Triton X-100, 140 mM NaCl, 10% glycerol, 1 mM EGTA, 1.5 mM MgCl2, 1 mM DTT, 1 mM sodium vanadate, and 50 μg/ml PMSF). […]

[2] = biological target: T1, β-catenin; assay: β-catenin level in CHO cells by Western blot; type: cell-based; conditions: stably transfected CHO cells, FIG. 2A
Experimental: (§1) Cell culture and transfections: CHO and SW480 human colon carcinoma cells were cultured in Dulbecco's modified Eagle's medium containing 10% fetal calf serum in an 8% CO2 incubator at 37° C. Transfections were performed using Lipofectamine (Gibco, BRL, USA) according to the manufacturer's instructions. Stably transfected CHO clones were generated by co-transfection with a plasmid encoding the puromycin resistance gene. Two days after transfection, cells were replated in the presence of 10 μg/ml puromycin (Sigma, Holon, Israel). Stable clones were isolated 2 weeks later and tested for the expression of the transgene by Western blot analysis.
Immunoblotting and immunoprecipitation: The following antibodies were used: polyclonal pan-cadherin or monoclonal anti cadherin (CH-19) and polyclonal anti β-catenin antibodies were from Sigma (Holon, Israel). Monoclonal anti β-catenin, 5H10 (from M. Wheelock), anti IL2Rα (from UBI), anti flag (M2, from IBI), anti HA (clone 12CA5, from Boehringer Mannheim, Germany), anti GFP (polyclonal, from Clontech, Palo Alto, Calif.), anti LEF-1 (polyclonal, kindly provided by Dr. R. Grosschedl). […]

[3] = test system: SW480 cells; assay: Immunofluorescence localization in SW480 cells (Example 1); type: cell-based, human; conditions: transfected SW480 cells, FIG. 6B
From the text: (§2) Immunofluorescence microscopy: Cells cultured on glass coverslips were fixed with 3% paraformaldehyde in phosphate-buffered saline (PBS) and permeabilized with 0.5% Triton X-100. CHO cells were immunofluorescently labeled as described (Levenberg S. et al. (1998) Long-range and selective autoregulation of cell-cell and cell-matrix adhesions by cadherin or integrin ligands. J. Cell Sci. 111:347-357). Nuclei were visualized using DAPI and the fluorescence was examined using a Zeiss Axiophot microscope and a x100/1.3 Planapochromat objective.

[4] = test system: CHO cells; assay: Immunofluorescence localization in CHO cells; type: cell-based; conditions: stably transfected CHO cells, FIG. 4
From the text: as §2

[5] = test system: β-catenin-dependent transactivation; assay: LEF-1 consensus luciferase transactivation in SW480 cells (Example 2); type: cell-based, human; conditions: co-transfection, FIG. 19A
Experimental: (§3) Cell Culture and Transfections: Canine kidney epithelial cells MDCK, human fibrosarcoma HT1080, 293-T human embryonic kidney cells, Balb/C mouse 3T3 and human colon carcinoma SW480 cell lines were cultured in Dulbecco's modified Eagle's medium supplemented with 10% calf serum (Gibco, Grand Island, N.Y.) at 37° C. in the presence of 7% CO2. The human renal carcinoma cell line KTCTL60 was grown in RPMI medium and 10% calf serum. Cells were transiently transfected with the cDNA constructs described below, using Ca^2+-phosphate or lipofectamine (Gibco) and the expression of the transgene was assessed between 24 and 48 hours after transfection. In some experiments, the expression of the stably transfected NH2 terminus-deleted β-catenin (Δ57) was enhanced in HT1080 cells by overnight treatment with 2 mM sodium butyrate.
(§4) A plasmid encoding β-galactosidase (0.5 μg) was cotransfected to enable normalization for transfection efficiency. The relevant plasmid expressing catenin constructs (4.5 μg) was co-transfected with the reporter, or an empty expression vector was included. After 24-48 hours expression of the reporter (luciferase) and the control (β-galactosidase) genes were determined using enzyme assay systems from Promega (Madison, Wis.).

[6] = test system: β-catenin-mediated transactivation; assay: TOPFLASH luciferase transactivation in SW480 cells (Example 1); type: cell-based, human; conditions: SW480 cells transfected with TOPFLASH and N-cadherin derivative, FIG. 6A
Experimental: as §1
(§5) Transactivation assays: CHO cells were transfected with TOPFLASH or FOPFLASH vectors (van de Wetering et al., 1997, ibid) and with pCDNA3 coding for β-galactosidase to normalize for transfection efficiency. The transfection mixture also contained either β-catenin, LEF-1 or cadherin derivatives in different combinations, as indicated. SW480 cells were transfected with TOPFLASH and cadherin derivatives. […] The reactions were stopped with 1 M Na2CO3 and the absorbance at 420 nm was determined. […] The luciferase reaction was monitored by a TD-20e luminometer (Turner, USA) and normalized for the β-galactosidase activity. […]

[7] = test system: β-catenin-mediated transactivation; assay: TOPFLASH/FOPFLASH luciferase transactivation in CHO cells; type: cell-based; conditions: TOPFLASH with LEF-1 and β-catenin vs TOPFLASH and LEF-1 without β-catenin
Experimental: as §1, §5

[8] = test system: LEF-1-driven transcription; assay: LEF-1 consensus (TOPFLASH) transactivation in 293 cells; type: cell-based, human; conditions: FIG. 18B
Experimental: as §3, §4

B1: N-cadherin: Full length chicken N-cadherin cloned into the pECE expression vector (protein)
chain: DWVIPPINLPENSRGPFPQELVRIRSDRDKSLSLRYSVTGPGADQPPTGIFIINPISGQLSVTKPLDREQIASFHLRAHAVDVNGNQVENPIDIVINVIDMNDNRPEFLHQVWNGTVPEGSKPGTYVMTVTAIDADDPNAQNGMLRYRILSQAPSSPSPNMFTINNETGDIITVAAGLDREKVQQYTLIIQATDMEGNPTYGLSNTATAVITVTDVNDNPPEFTAMTFYGEVPENRVDVIVANLTVTDKDQPHTPAWNARYQMTGGDPTGQFTILTDPNSNDGLVTVVKPIDFETNRMFVLTVAAENQVPLAKGIQHPPQSTATVSITVIDVNESPYFVPNPKLVRQEEGLLAGSMLTTFTARDPDRYMQQTSLRYSKLSDPANWLKIDPVNGQITTTAVLDRESIYVQNNMYNATFLASDNGIPPMSGTGTLQIYLLDINDNAPQVNPKEATTCETLQPNAINITAVDPDIDPNAGPFAFELPDSPPSIKRNWTIVRISGDHAQLSLRIRFLEAGIYDVPIVITDSGNPHASSTSVLKVKVCQCDINGDCTDVDRIVGAGLGTGAIIAILLCIIILLILVLMFVVWMKRRDKERQAKQLLIDPEDDVRDNILKYDEEGGGEEDQDYDLSQLQQPDTVEPDAIKPVGIRRLDERPIHAEPQYPVRSAAPHPGDIGDFINEGLKAADNDPTAPPYDSLLVFDYEGSGSTAGSLSSLNSSSSGGEQDYDYLNDWGPRFKKLADMYGGGDD
[1]
  interaction with β-catenin by co-immunoprecipitation: direct interaction
[2]
  effect on β-catenin levels: increase in β-catenin levels
[3]
  subcellular localization of β-catenin: binding of the endogenous β-catenin to the plasma membrane
[4]
  subcellular localization of cadherin derivative and β-catenin: mainly associated with cell-cell junctions
[5]
  effect on constitutive LEF-1 driven transcription: effectively blocked
[6]
  inhibition of TOPFLASH reporter (luciferase) activity: about 70%

B2: β-catenin: transfected β-catenin cDNA construct (protein, UniProt P35222 2-781, looked up)
Catenin beta-1: ATQADLMELDMAMEPDRKAAVSHWQQQSYLDSGIHSGATTTAPSLSGKGNPEEEDVDTSQVLYEWEQGFSQSFTQEQVADIDGQYAMTRAQRVRAAMFPETLDEGMQIPSTQFDAAHPTNVQRLAEPSQMLKHAVVNLINYQDDAELATRAIPELTKLLNDEDQVVVNKAAVMVHQLSKKEASRHAIMRSPQMVSAIVRTMQNTNDVETARCTAGTLHNLSHHREGLLAIFKSGGIPALVKMLGSPVDSVLFYAITTLHNLLLHQEGAKMAVRLAGGLQKMVALLNKTNVKFLAITTDCLQILAYGNQESKLIILASGGPQALVNIMRTYTYEKLLWTTSRVLKVLSVCSSNKPAIVEAGGMQALGLHLTDPSQRLVQNCLWTLRNLSDAATKQEGMEGLLGTLVQLLGSDDINVVTCAAGILSNLTCNNYKNKMMVCQVGGIEALVRTVLRAGDREDITEPAICALRHLTSRHQEAEMAQNAVRLHYGLPVVVKLLHPPSHWPLIKATVGLIRNLALCPANHAPLREQGAIPRLVQLLVRAHQDTQRRTSMGGTQQQFVEGVRMEEIVEGCTGALHILARDVHNRIVIRGLNTIPLFVQLLYSPIENIQRVAAGVLCELAQDKEAAEAIEAEGATAPLTELLHSRNEGVATYAAAVLFRMSEDKPQDYKKRLSVELTSSLFRTEPMAWNETADLGLDIGAQGEPLGYRQDDPSYRSFHSGGYGQDALGMDPMMEHEMGGHHPGADYPVDGLPDLGHAQDLMDGLPPGDSNQLAWFDTDL
[7]
  increase in luciferase activity: about 5 fold
[8]
  activation of LEF-1-driven transcription: potent transcriptional co-activator
